Reference: the supplement of paper PMC10724198

Key:
[1] = test system: Saccharomyces cerevisiae; experiment: protein stability index of tFT-peptide fusion in deletion strain of DAS1 (PSI (0-1 scale)); higher = more stable (slower turnover)
Procedure: (§1)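 MPS profiling in S. cerevisiae of two library types built from selected 12-aa C-degron peptides (IN1, IN2, LN1, LN3, VN2, R1-R5, W1-W3, Atg1 and Rpa12 C-termini): saturation mutagenesis libraries and C-terminal +1 capping libraries (13 aa). Each peptide is fused to the C-terminus of a sfGFP-mCherry timer, after a GGGS linker. Cells are FACS-sorted into 8 mCherry/sfGFP bins and sequenced. PSI runs from 0 (unstable) to 1 (stable), measured once in wild type and in the das1Δ or doa10Δ background.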

[2] = test system: Saccharomyces cerevisiae; experiment: protein stability index of tFT-peptide fusion in wild type (PSI (0-1 scale)); higher = more stable (slower turnover); settings: genetic background: wild type
Procedure: as §1
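Throughout, for protein stability index of tFT-peptide fusion in deletion strain of DAS1: PSI is a weighted mean of each variant's read distribution over the sorted stability bins, computed only for variants having over 10 reads in total.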
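Throughout, for protein stability index of tFT-peptide fusion in wild type: PSI derived as read-weighted mean over the 8 sorting bins, only variants exceeding 10 total reads kept, mCherry placed adjacent to the peptide and sfGFP distal.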

| Sequence | protein stability index [1] | protein stability index [2] |
| --- | --- | --- |
| KKHKKGQAQKIN | 0.605 | 0.0853 |
| KKHKKGQKIKIN | 0.576 | 0.294 |
| KKHKKGQKQEIN | 0.589 | 0.591 |
| KKHKKGQKQKAN | 0.709 | 0.308 |
| KKHKKGQKQKIK | 0.553 | 0.634 |
| KKHKKGQKQKIL | 0.595 | 0.222 |
| KKHKKGQKQKIS | 0.607 | 0.101 |
| KKHKKGQKQMIN | 0.591 | 0.117 |
| KKHKKGQKVKIN | 0.615 | 0.225 |
| KKHKKGQLQKIN | 0.628 | 0.121 |
| KKHKKGQNQKIN | 0.625 | 0.191 |
| KKHKKQQKQKIN | 0.59 | 0.0595 |
| KLHKKGQKQKIN | 0.612 | 0.0703 |
| KTSCGYKFRTNN | 0.679 | 0.225 |
| LDKRNHLIKLLN | 0.599 | 0.137 |
| LEVYLSCVACIN | 0.0737 | 0.0193 |
| LKILDQKMNHQN | 0.691 | 0.648 |
| LKILRLKMNHQN | 0.65 | 0.171 |
| LKILRQIMNHQN | 0.693 | 0.244 |
| LKILRQKDNHQN | 0.666 | 0.664 |
| LKILRQKMNHQC | 0.635 | 0.184 |
| LKILRQKMNHSN | 0.674 | 0.231 |
| LKILRQKMNLQN | 0.666 | 0.221 |

| Sequence | protein stability index [1] | protein stability index [2] |
| --- | --- | --- |
| LKILRQKMNWQN | 0.661 | 0.286 |
| LKILRQKMYHQN | 0.658 | 0.249 |
| LKILRQLMNHQN | 0.665 | 0.219 |
| LKILRQPMNHQN | 0.68 | 0.658 |
| LKILRQWMNHQN | 0.693 | 0.184 |
| LKILRQYMNHQN | 0.675 | 0.242 |
| LKQLRQKMNHQN | 0.663 | 0.212 |
| LKSLRQKMNHQN | 0.681 | 0.202 |
| LLVYLSCVACIN | 0.0429 | 0.0174 |
| LRWRVGLWRGAS | 0.682 | 0.0917 |
| LSMRWTFRYWVN | 0.531 | 0.0756 |
| LVVHLSCVACIN | 0.0251 | 0.0147 |
| LVVYDSCVACIN | 0.468 | 0.368 |
| LVVYLNCVACIN | 0.0265 | 0.0331 |
| LVVYLPCVACIN | 0.202 | 0.119 |
| LVVYLSCNACIN | 0.0655 | 0.0647 |
| LVVYLSCVACINA | 0.0343 | 0.0212 |
| LVVYLSCVACINP | 0.0332 | 0.0199 |
| LVVYLSCVACIP | 0.0442 | 0.0232 |
| LVVYLSCVLCIN | 0.141 | 0.0221 |
| LVVYLSCVQCIN | 0.0333 | 0.0151 |
| LVVYLSGVACIN | 0.264 | 0.181 |
| LVVYLSIVACIN | 0.0849 | 0.0584 |

| Sequence | protein stability index [1] | protein stability index [2] |
| --- | --- | --- |
| LVVYLSSVACIN | 0.0579 | 0.0245 |
| LVVYLWCVACIN | 0.0851 | 0.0141 |
| LVYYLSCVACIN | 0.0331 | 0.0126 |
| LWILRQKMNHQN | 0.695 | 0.124 |
| MLIQPLPVQFLN | 0.654 | 0.0562 |
| NVVYLSCVACIN | 0.0341 | 0.0156 |
| PAKRNHLIKLLN | 0.618 | 0.131 |
| PALAASFWRVVG | 0.687 | 0.178 |
| PDCRNHLIKLLN | 0.673 | 0.136 |
| PDIRNHLIKLLN | 0.675 | 0.134 |
| PDKRNFLIKLLN | 0.61 | 0.112 |
| PDKRNHHIKLLN | 0.665 | 0.111 |
| PDKRNHIIKLLN | 0.57 | 0.132 |
| PDKRNHLEKLLN | 0.63 | 0.292 |
| PDKRNHLIGLLN | 0.609 | 0.612 |
| PDKRNHLIILLN | 0.66 | 0.107 |
| PDKRNHLIKLLNL | 0.665 | 0.298 |
| PDKRNHLIKTLN | 0.604 | 0.164 |
| PDKRNHLIVLLN | 0.637 | 0.148 |
| PDKRNHLNKLLN | 0.579 | 0.126 |
| PDKRNHLRKLLN | 0.574 | 0.205 |
| PDKRNHRIKLLN | 0.661 | 0.159 |
| PDKRNQLIKLLN | 0.633 | 0.0747 |

| Sequence | protein stability index [1] | protein stability index [2] |
| --- | --- | --- |
| PDKRYHLIKLLN | 0.597 | 0.0495 |
| PDVRNHLIKLLN | 0.613 | 0.119 |
| PPKRNHLIKLLN | 0.581 | 0.116 |
| PSLAAAFWRVVG | 0.702 | 0.142 |
| PSLAADFWRVVG | 0.712 | 0.171 |
| PSLAAGFWRVVG | 0.678 | 0.164 |
| PSLAALFWRVVG | 0.674 | 0.129 |
| PSLAASCWRVVG | 0.675 | 0.143 |
| PSLAASFWRGVG | 0.707 | 0.232 |
| PSLAASFWRRVG | 0.69 | 0.128 |
| PSLAASFWRVDG | 0.7 | 0.68 |
| PSLAASFWRVNG | 0.702 | 0.167 |
| PSLAASFWRVVGF | 0.693 | 0.692 |
| PSLAASFWRVVGQ | 0.705 | 0.649 |
| PSLAASFWRVVGR | 0.691 | 0.692 |
| PSLAASFWRVVW | 0.683 | 0.637 |
| PSLAASGWRVVG | 0.679 | 0.193 |
| PSLAASMWRVVG | 0.73 | 0.147 |
| PSLAASTWRVVG | 0.68 | 0.132 |
| PSLAGSFWRVVG | 0.667 | 0.152 |
